Data: patent publication US20030232757A1

Biological target: T1, CryET39 crystal protein (Bacillus thuringiensis delta-endotoxin, approximately 44-kDa) (Bacillus thuringiensis (strain EG5899))
T1 sequence: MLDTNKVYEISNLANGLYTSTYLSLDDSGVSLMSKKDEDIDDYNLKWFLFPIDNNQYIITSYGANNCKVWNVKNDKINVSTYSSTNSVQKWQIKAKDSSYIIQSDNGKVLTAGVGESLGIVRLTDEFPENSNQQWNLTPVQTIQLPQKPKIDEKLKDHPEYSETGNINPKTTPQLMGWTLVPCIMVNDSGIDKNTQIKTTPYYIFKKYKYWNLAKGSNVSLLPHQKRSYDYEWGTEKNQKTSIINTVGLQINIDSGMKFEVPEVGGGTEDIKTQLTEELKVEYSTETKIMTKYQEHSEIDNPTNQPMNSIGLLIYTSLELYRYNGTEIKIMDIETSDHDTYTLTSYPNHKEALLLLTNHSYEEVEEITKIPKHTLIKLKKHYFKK
Experiment: cell-based or functional assay

B1: CryET74 crystal protein (Bacillus thuringiensis delta-endotoxin, approximately 13-15-kDa) (protein)
chain: MSAREVHIEINNKTRHTLQLEDKTKLSGGRWRTSPTNVARDTIKTFVAESHGFMTGVEGIIYFSVNGDAEISLHFDNPYIGSNKCDGSSDKPEYEVITQSGSGDKSHVTYTIQTVSLRL
- Percent Control (WCRW larval mortality corrected for diluent control); 50:50 mixture EG11935 (CryET74) + EG11937 (1) (CryET39), dose 80 µg/well (percent control): 100
- Percent Control (WCRW larval mortality corrected for diluent control); 50:50 mixture EG11935 (CryET74) + EG11937 (1) (CryET39), dose 160 µg/well (percent control): 100
- Percent Control (WCRW larval mortality corrected for diluent control); 50:50 mixture EG11935 (CryET74) + EG11937 (2) (CryET39), dose 80 µg/well (percent control): 100
- Percent Control (WCRW larval mortality corrected for diluent control); 50:50 mixture EG11935 (CryET74) + EG11937 (2) (CryET39), dose 160 µg/well (percent control): 93.3
- Percent Control (WCRW larval mortality corrected for diluent control); EG11936 (CryET39 + CryET74 co-expressed), dose 80 µg/well (percent control): 100
- Percent Control (WCRW larval mortality corrected for diluent control); EG11936 (CryET39 + CryET74 co-expressed), dose 160 µg/well (percent control): 100
